Test results as given in patent US20210395390A1.
Residue numbers refer to the chain shown, from its start.

B1: TPP-8243 (antibody, human IgG1, lambda, V domains shown)
VH: EVQLLESGGGLVQPGGSLRLSCAASGFTFSNYGIHWVRQAPGKGLEWVSAIGTGGDTYYADSVMGRFTISRDNSKNTLYLQMNSLRAEDTAVYYCARDRGYYDILTGLYDYWGQGTLVTVSS
VL: QSVLTQPPSASGTPGQRVTISCSGSSSNIGNNAVNWYQQLPGTAPKLLIYGNYHRPSGVPDRFSGSKSGTSASLAISGLRSEDEADYYCSSYAGSNNWVFGGGTKLTVLG
B2: TPP-8246 (antibody, human IgG1, lambda, V domains shown)
VH: EVQLLESGGGLVQPGGSLRLSCAASGFTFSSYSMNWVRQAPGKGLEWVSTISGSGGITHYADSVKGRFTISRDNSKNTLYLQMNSLRAEDTAVYYCARDRGNRVAARPAFDYWGQGTLVTVSS
VL: QSVLTQPPSASGTPGQRVTISCTESSSNTGAGYDVHWYQQLPGTAPKLLIYGNTNRPSGVPDRFSGSKSGTSASLAISGLRSEDEADYYCASWDDNLGGWVFGGGTKLTVLG
B3: TPP-8238 (antibody, human IgG1, lambda, V domains shown)
VH: EVQLLESGGGLVQPGGSLRLSCAASGFTFSSYSMNWVRQAPGKGLEWVASISGSGANTYFADTVKGRFTISRDNSKNTLYLQMNSLRAEDTAMYYCARHGQVRLNYGSPTTVYNWFDRWGQGTLVTVSS
VL: B2 VL with E24G, T29I, T54S, S92A, D94H, N96S, G98N
B4: TPP-8240 (antibody, human IgG1, lambda, V domains shown)
VH: EVQLLESGGGLVQPGGSLRLSCAASGFTFSSYAMSWVRQAPGKGLEWVAVISYDGSNKHYADSVKGRFTISRDNSKNTLYLQMNSLRAEDTAVYYCARDSMVRGKIFDYWGQGTLVTVSS
VL: QSVLTQPPSASGTPGQRVTISCSGSSSNIGNNAVNWYQQLPGTAPKLLIYEDNKRPSGVPDRFSGSKSGTSASLAISGLRSEDEADYYCMIWHSSAWVFGGGTKLTVLG
B5: TPP-8236 (antibody, human IgG1, lambda, V domains shown)
VH: EVQLLESGGGLVQPGGSLRLSCAASGFTFSDYYMNWVRQAPGKGLEWVSTISGTGAAAFYADSVRGRFTISRDNSKNTLYLQMNSLRAEDTAVYYCARDQYLTGGAFDIWGQGTLVTVSS
VL: QSVLTQPPSASGTPGQRVTISCSGSSSNIGNNAVNWYQQLPGTAPKLLIYGNSNRPSGVPDRFSGSKSGTSASLAISGLRSEDEADYYCSSYRGSSTLVVFGGGTKLTVLG

Columns and labels:
[1] = target: anti-FXIa antibody 076D-M007-H04-CDRL3-N110D; test: cell-based or functional assay
[2] = target: anti-FXIa antibody 076D-M007-H04-CDRL3-N110D; test: ELISA, 076D-M007-H04-CDRL3-N110D coated at 1 µg/ml, anti-human lambda light chain-peroxidase detection

Row | Binder | Neutralizing activity, IC50 (biochemical FXIa assay) [1] [nM] | aPTT 1.5 X [1] [µM] | aPTT 1.5 X (EC150) [1] [µM] | biochemical FXIa assay IC 50 [1] [nM] | plasma based FXIa assay, IC50 [1] [nM] | plasma based assay IC 50 [1] [nM] | EC50 [2] [nM] | Neutralizing activity (biochemical FXIa assay) (% inhibition at 1.00E-06 M) [1]
1 | B1 | 1.13 | 0.3 | 0.3 | 1.1 | 5 | 5 | 0.256 | –
2 | B2 | > 1000 | – | – | – | – | – | 0.477 | –
3 | B3 | – | – | – | – | – | – | 0.485 | 75
4 | B4 | > 1000 | – | – | – | – | – | 0.216 | –
5 | B5 | > 1000 | – | – | – | – | – | 0.484 | –
